Test results published in publication PMC8396340.

Molecular target: Transferrin receptor 1 (TfR, CD71) (Homo sapiens) (UniProt P02786)
Assay: flow cytometry cell binding
Details: 5 mM Mg2+, PBS, 4.5 g/L glucose, 5 mM MgCl2, 1 mg/mL BSA, 0.1 mg/mL herring sperm DNA, 30 min on ice (4 C), intact cells
[1] = HCT-8T cells (cell line inferred)

UniProt P02786, sequence (P02786 whole entry): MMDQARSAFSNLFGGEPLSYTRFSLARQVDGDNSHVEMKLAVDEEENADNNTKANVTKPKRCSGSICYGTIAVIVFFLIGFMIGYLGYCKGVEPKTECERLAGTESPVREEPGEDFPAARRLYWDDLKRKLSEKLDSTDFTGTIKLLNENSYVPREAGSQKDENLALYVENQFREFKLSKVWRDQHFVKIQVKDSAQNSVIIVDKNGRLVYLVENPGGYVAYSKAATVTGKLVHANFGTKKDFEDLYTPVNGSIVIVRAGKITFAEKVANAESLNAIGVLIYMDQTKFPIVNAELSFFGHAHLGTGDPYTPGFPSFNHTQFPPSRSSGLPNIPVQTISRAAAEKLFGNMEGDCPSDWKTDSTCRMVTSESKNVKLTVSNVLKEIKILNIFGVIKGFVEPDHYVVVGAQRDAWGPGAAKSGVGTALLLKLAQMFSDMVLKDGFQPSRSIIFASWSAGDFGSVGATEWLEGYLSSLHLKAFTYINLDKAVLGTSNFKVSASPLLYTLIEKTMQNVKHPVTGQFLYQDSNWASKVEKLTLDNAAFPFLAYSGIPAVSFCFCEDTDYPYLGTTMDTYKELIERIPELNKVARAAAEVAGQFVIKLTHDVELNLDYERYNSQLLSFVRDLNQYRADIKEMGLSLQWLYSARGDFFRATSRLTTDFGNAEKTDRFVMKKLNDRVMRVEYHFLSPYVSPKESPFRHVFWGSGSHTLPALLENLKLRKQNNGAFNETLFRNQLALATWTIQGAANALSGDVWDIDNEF

Row | Sequence | Kd [1] | Kd (HeLa cells) | Kd (Jurkat cells)
1 | AAGGAGCAGCGTGGAGGATAGGGATTCTGTTGGTCGGCTGGTTGGTATCCTTAGGGTGTGTCGTCGTGGT [HG1] | 6.48 nM | – | –
2 | GGATAGGGATTCTGTTGGTCGGCTGGTTGGTATCC [HG1-9] | 5.4 nM | 19.8 nM | 11 nM
